The test system of data set [1] is HeLa Kyoto. Kind of data set: thermal stability score vs G1/S (z-score of summed log2 fold changes over temperatures); higher = more thermally stable than in G1/S.
The subject of data set [2] is HeLa Kyoto. Kind of data set: solubility change mitosis vs G1/S (difference of NP-40 vs SDS log2 ratios) (log2 ratio difference); higher = more soluble in mitosis.
Data set [3] relates to HeLa Kyoto. Kind of data set: solubility in G1/S (NP-40 vs SDS abundance) (log2 ratio); higher = more soluble. Particulars: cell cycle stage: G1/S.
Where [4] appears, read: cell cycle stage: early G1 (4.5 h after nocodazole release).

This note sets out measurements from the supplement of paper PMC5998384.
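For solubility change mitosis vs G1/S (difference of NP-40 vs SDS log2 ratios) in this document: synchronized HeLa Kyoto cells (double thymidine block for G1/S, nocodazole release for mitosis), protein amounts in NP-40 versus SDS lysates quantified by mass spectrometry, three biological replicates.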
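For solubility in G1/S (NP-40 vs SDS abundance) in this document: HeLa Kyoto cells arrested at G1/S by double thymidine block, proteins quantified by TMT10plex mass spectrometry in mild NP-40 versus SDS extracts, three biological replicates.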
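For thermal stability score vs G1/S (z-score of summed log2 fold changes over temperatures) in this document: synchronized HeLa Kyoto cells, proteins quantified by TMT10plex mass spectrometry, three biological replicates, mitosis taken 0.5 h after nocodazole release, G1/S directly after double thymidine block.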

Regarding “MPGRSSSNSGSTGFISFSGVESALSSLKNFQACINSGMDTASSVALDLVESQTEVSSEYSMDKAMVEFATLDRQLNHYVKAVQSTINHVKEERPEKIPDLKLLVEKKFLALQSKNSDADFQNNEKFVQFKQQLKELKKQCGLQADREADGTEGVDEDIIVTQSQTNFTCPITKEEMKKPVKNKVCGHTYEEDAIVRMIESRQKRKKKAYCPQIGCSHTDIRKSDLIQDEALRRAIENHNKKRHRHSE [NSMCE2]”, the thermal stability score in the data set on HeLa Kyoto [1] (setting [4]) was -0.691; with HeLa Kyoto [1] (cell cycle stage: mitosis), -0.266. In the data set on HeLa Kyoto [2], the “solubility change mitosis (log2)” value was found to be 0.0514. Moreover, the “solubility in G1/S (log2)” value in the data set with HeLa Kyoto [3] is -0.0327.

Turning to “MRPPACWWLLAPPALLALLTCSLAFGLASEDTKKEVKQSQDLEKSGISRKNDIDLKGIVFVIQSQSNSFHAKRAEQLKKSILKQAADLTQELPSVLLLHQLAKQEGAWTILPLLPHFSVTYSRNSSWIFFCEEETRIQIPKLLETLRRYDPSKEWFLGKALHDEEATIIHHYAFSENPTVFKYPDFAAGWALSIPLVNKLTKRLKSESLKSDFTIDLKHEIALYIWDKGGGPPLTPVPEFCTNDVDFYCATTFHSFLPLCRKPVKKKDIFVAVKTCKKFHGDRIPIVKQTWESQASLIEYYSDYTENSIPTVDLGIPNTDRGHCGKTFAILERFLNRSQDKTAWLVIVDDDTLISISRLQHLLSCYDSGEPVFLGERYGYGLGTGGYSYITGGGGMVFSREAVRRLLASKCRCYSNDAPDDMVLGMCFSGLGIPVTHSPLFHQARPVDYPKDYLSHQVPISFHKHWNIDPVKVYFTWLAPSDEDKARQETQKGFREEL [B3GLCT]”, the thermal stability score was 1.99 in the data set with HeLa Kyoto [1] (setting [4]) and 2.59 in the data set with HeLa Kyoto [1] (cell cycle stage: mitosis). Further, the “solubility change mitosis (log2)” value in the data set on HeLa Kyoto [2] is -0.0692. In addition, the “solubility in G1/S (log2)” value in the data set on HeLa Kyoto [3] turned out to be 0.0765.

On to “MSAKDERAREILRGFKLNWMNLRDAETGKILWQGTEDLSVPGVEHEARVPKKILKCKAVSRELNFSSTEQMEKFRLEQKVYFKGQCLEEWFFEFGFVIPNSTNTWQSLIEAAPESQMMPASVLTGNVIIETKFFDDDLLVSTSRVRLFYV [PDE6D]”, for which the figures for the thermal stability score in the data set on HeLa Kyoto [1] (setting [4]) and in the data set with HeLa Kyoto [1] (cell cycle stage: mitosis) were 0.113 and -0.864, respectively. The “solubility change mitosis (log2)” value in the data set with HeLa Kyoto [2] was -0.258. Besides, in the data set with HeLa Kyoto [3], the “solubility in G1/S (log2)” value came to 0.207.

Consider “MSGDTCLCPASGAKPKLSGFKGGGLGNKYVQLNVGGSLYYTTVRALTRHDTMLKAMFSGRMEVLTDKEGWILIDRCGKHFGTILNYLRDDTITLPQNRQEIKELMAEAKYYLIQGLVNMCQSALQDKKDSYQPVCNIPIITSLKEEERLIESSTKPVVKLLYNRSNNKYSYTSNSDDHLLKNIELFDKLSLRFNGRVLFIKDVIGDEICCWSFYGQGRKLAEVCCTSIVYATEKKQTKVEFPEARIYEETLNVLLYETPRVPDNSLLEATSRSRSQASPSEDEETFELRDRVRRIHVKRYSTYDDRQLGHQSTHRD [TNFAIP1]”, for which the thermal stability score is 1.18e-17 with HeLa Kyoto [1] (setting [4]) and -0.17 in the data set on HeLa Kyoto [1] (cell cycle stage: mitosis). Moreover, the “solubility change mitosis (log2)” value in the data set on HeLa Kyoto [2] was determined as 0.627. For the same sequence, the “solubility in G1/S (log2)” value in the data set with HeLa Kyoto [3] was -1.22.

In the case of “MSQVMSSPLLAGGHAVSLAPCDEPRRTLHPAPSPSLPPQCSYYTTEGWGAQALMAPVPCMGPPGRLQQAPQVEAKATCFLPSPGEKALGTPEDLDSYIDFSLESLNQMILELDPTFQLLPPGTGGSQAELAQSTMSMRKKEESEALDIKYIEVTSARSRCHDGPQHCSSPSVTPPFGSLRSGGLLLSRDVPRETRSSSESLIFSGNQGRGHQRPLPPSEGLSPRPPNSPSISIPCMGSKASSPHGLGSPLVASPRLEKRLGGLAPQRGSRISVLSASPVSDVSYMFGSSQSLLHSSNSSHQSSSRSLESPANSSSSLHSLGSVSLCTRPSDFQAPRNPTLTMGQPRTPHSPPLAKEHASSCPPSITNSMVDIPIVLINGCPEPGSSPPQRTPGHQNSVQPGAASPSNPCPATRSNSQTLSDAPFTTCPEGPARDMQPTMKFVMDTSKYWFKPNITREQAIELLRKEEPGAFVIRDSSSYRGSFGLALKVQEVPASAQSRPGEDSNDLIRHFLIESSAKGVHLKGADEEPYFGSLSAFVCQHSIMALALPCKLTIPQRELGGADGASDSTDSPASCQKKSAGCHTLYLSSVSVETLTGALAVQKAISTTFERDILPTPTVVHFKVTEQGITLTDVQRKVFFRRHYPLTTLRFCGMDPEQRKWQKYCKPSWIFGFVAKSQTEPQENVCHLFAEYDMVQPASQVIGLVTALLQDAERM [TNS4]”, the figures for the thermal stability score with HeLa Kyoto [1] (setting [4]) and in the data set with HeLa Kyoto [1] (cell cycle stage: mitosis) were -0.0391 and 2.56, respectively. For the same sequence, the “solubility change mitosis (log2)” value in the data set on HeLa Kyoto [2] was -0.0286. In addition, the “solubility in G1/S (log2)” value in the data set with HeLa Kyoto [3] came out at 0.00637.

Consider “MSSCVSSQPSSNRAAPQDELGGRGSSSSESQKPCEALRGLSSLSIHLGMESFIVVTECEPGCAVDLGLARDRPLEADGQEVPLDTSGSQARPHLSGRKLSLQERSQGGLAAGGSLDMNGRCICPSLPYSPVSSPQSSPRLPRRPTVESHHVSITGMQDCVQLNQYTLKDEIGKGSYGVVKLAYNENDNTYYAMKVLSKKKLIRQAGFPRRPPPRGTRPAPGGCIQPRGPIEQVYQEIAILKKLDHPNVVKLVEVLDDPNEDHLYMVFELVNQGPVMEVPTLKPLSEDQARFYFQDLIKGIEYLHYQKIIHRDIKPSNLLVGEDGHIKIADFGVSNEFKGSDALLSNTVGTPAFMAPESLSETRKIFSGKALDVWAMGVTLYCFVFGQCPFMDERIMCLHSKIKSQALEFPDQPDIAEDLKDLITRMLDKNPESRIVVPEIKLHPWVTRHGAEPLPSEDENCTLVEVTEEEVENSVKHIPSLATVILVKTMIRKRSFGNPFEGSRREERSLSAPGNLLTKKPTRECESLSELKEARQRRQPPGHRPAPRGGGGSALVRGSPCVESCWAPAPGSPARMHPLRPEEAMEPE [CAMKK2]”, for which the thermal stability score with HeLa Kyoto [1] (setting [4]) was -0.348; in the data set with HeLa Kyoto [1] (cell cycle stage: mitosis), -0.0506. Further, the “solubility change mitosis (log2)” value with HeLa Kyoto [2] was -0.0691. For the same sequence, the “solubility in G1/S (log2)” value in the data set with HeLa Kyoto [3] was found to be 0.289.
